In this experiment the target is HSV-2G gB ectodomain (recombinant glycoprotein B of Herpes simplex virus 2 strain G, aa 22-724) (Herpes simplex virus 2 (strain G)). As to the kind of experiment: cryo-EM structure.

Here are results for 1 substance from PMC11134845.

For orientation: stoichiometry N means the number of molecules, sites or subunits per partner or assembly.

As to “HSV-2G gB ectodomain (recombinant glycoprotein B of Herpes simplex virus 2 strain G, aa 22-724) (domain or fragment)”, the stoichiometry N came to 3.
